Test results: paper PMC3900260
Like-named read-outs stand apart in the source and are kept apart here.

apurinic/apyrimidinic endonuclease 1 (APE1): K6R/K7R
no change: enzymatic_activity (acetylation at K6) | expression_or_secretion (acetylation at K6) | enzymatic_activity (acetylation at K7) | expression_or_secretion (acetylation at K7)
